Drawing on PMC8904060, this text covers Kd, koff and kon for 6 substances.

Assay [1] has as its target FimH variant 9 (recombinant dscFimH-His6) (E. coli | not stated) (UniProt P08191). In words: SPR; BIAcore T200; FimH variant immobilised on CM5 chip (target amount 2,000 RU); GP2 isoforms as analytes at 0.5, 2.0, 6.0, 16 and 29 uM in PBS-P+; 25 C, 30 uL/min; association 3 min, dissociation 10 min; global 1:1 Langmuir fit. (In general: Surface plasmon resonance follows binding to a sensor surface in real time, without labels.)

Assay [2] concerns the target FimH variant 5 (recombinant dscFimH-His6) (E. coli | not stated) (UniProt P08191). The assay is described as above.

A word on the Kd: it is the constant that tells how readily two partners part at equilibrium. As usually defined, the koff is the first-order rate constant of dissociation. As usually defined, the kon is the rate constant with which the complex forms. Regarding “porcine GP2 isoform 1, recombinant (natural protein)”, in assay [1], the equilibrium dissociation constant (Kd) turned out to be 158 nM, the koff worked out at 8.44e-05 s⁻¹ and the kon was determined as 535 M⁻¹ s⁻¹. Moreover, in assay [2], the Kd worked out at 22.6 nM, the koff was 1.71e-05 s⁻¹ and the association rate constant (kon) was 758 M⁻¹ s⁻¹.

Consider “porcine GP2 isoform 2, recombinant (natural protein)”, for which, in assay [1], the Kd was 98.5 nM, the koff is 8.84e-05 s⁻¹ and the kon was 898 M⁻¹ s⁻¹. In addition, in assay [2], the Kd worked out at 95.7 nM, the koff worked out at 8.32e-05 s⁻¹ and the kon was 870 M⁻¹ s⁻¹.

As for “human GP2 isoform 4, recombinant (natural protein)”, in assay [1], the equilibrium dissociation constant (Kd) was 0.927 nM, the off-rate (koff) stood at 4.31e-07 s⁻¹ and the kon was found to be 465 M⁻¹ s⁻¹. Further, in assay [2], the Kd stood at 21.7 nM, the koff turned out to be 1.68e-05 s⁻¹ and the association rate constant (kon) stood at 772 M⁻¹ s⁻¹.

“bovine GP2 isoform 1 (major zymogen granule membrane glycoprotein 2), recombinant secreted form (natural protein)”: in assay [1], the Kd came to 340 nM, the koff is 0.000187 s⁻¹ and the kon stood at 551 M⁻¹ s⁻¹. Moreover, in assay [2], the Kd is 179 nM, the dissociation rate constant (koff) is 9.65e-05 s⁻¹ and the on-rate constant (kon) was determined as 538 M⁻¹ s⁻¹.

For the substance “bovine GP2 isoform 2 (major zymogen granule membrane glycoprotein 2), recombinant secreted form (natural protein)”, in assay [1], the Kd was determined as 93.4 nM, the koff is 5.72e-05 s⁻¹ and the kon stood at 612 M⁻¹ s⁻¹. Moreover, in assay [2], the Kd is 136 nM, the koff worked out at 7.41e-05 s⁻¹ and the kon stood at 545 M⁻¹ s⁻¹.

For the substance “human GP2 isoform 2, recombinant (natural protein)”, in assay [1], the Kd was found to be 22.5 nM, the off-rate constant (koff) was determined as 2.38e-05 s⁻¹ and the kon came out at 1060 M⁻¹ s⁻¹. For the same substance, in assay [2], the Kd came out at 97.8 nM, the koff came out at 0.000102 s⁻¹ and the kon is 1040 M⁻¹ s⁻¹.
